How the values were obtained:
tocilizumab [1] = experiment: BLI (BLItz), biotinylated ligand on sensor, antibody in solution
tocilizumab [2] = experiment: BLItz biolayer interferometry; biotinylated ligand immobilized on the chip, tocilizumab at 41.34, 82.68 and 165.3 nM in PBS (+0.1% BSA); same fitted value in all three rows of the table [C]

tocilizumab, sequence (VH, as listed by the source, chain 1 of 2): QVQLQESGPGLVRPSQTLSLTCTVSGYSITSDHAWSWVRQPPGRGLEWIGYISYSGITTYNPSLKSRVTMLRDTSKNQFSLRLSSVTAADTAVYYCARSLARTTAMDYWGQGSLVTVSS
tocilizumab, sequence (VL, as listed by the source, chain 2 of 2): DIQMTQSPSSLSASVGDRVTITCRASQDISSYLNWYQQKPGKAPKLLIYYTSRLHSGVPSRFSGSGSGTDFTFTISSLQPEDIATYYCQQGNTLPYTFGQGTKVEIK

Substance: ligand of MabSelect SuRe
- Kd (tocilizumab [1]): 8.11 nM
- koff (tocilizumab [2]): 0.00281 s⁻¹
- kon (tocilizumab [2]): 346000 M⁻¹ s⁻¹
